Source: patent US20060148057A1 (published 2006)
Changes are numbered by the printed parent chain. Numbers in names are those of the source.

How the values were obtained:
HA-tagged ASK1-WT [1] = target: T1, HA-tagged ASK1-WT (UniProt Q99683 1-1374); assay: cell-based or functional assay
T1 sequence (looked up): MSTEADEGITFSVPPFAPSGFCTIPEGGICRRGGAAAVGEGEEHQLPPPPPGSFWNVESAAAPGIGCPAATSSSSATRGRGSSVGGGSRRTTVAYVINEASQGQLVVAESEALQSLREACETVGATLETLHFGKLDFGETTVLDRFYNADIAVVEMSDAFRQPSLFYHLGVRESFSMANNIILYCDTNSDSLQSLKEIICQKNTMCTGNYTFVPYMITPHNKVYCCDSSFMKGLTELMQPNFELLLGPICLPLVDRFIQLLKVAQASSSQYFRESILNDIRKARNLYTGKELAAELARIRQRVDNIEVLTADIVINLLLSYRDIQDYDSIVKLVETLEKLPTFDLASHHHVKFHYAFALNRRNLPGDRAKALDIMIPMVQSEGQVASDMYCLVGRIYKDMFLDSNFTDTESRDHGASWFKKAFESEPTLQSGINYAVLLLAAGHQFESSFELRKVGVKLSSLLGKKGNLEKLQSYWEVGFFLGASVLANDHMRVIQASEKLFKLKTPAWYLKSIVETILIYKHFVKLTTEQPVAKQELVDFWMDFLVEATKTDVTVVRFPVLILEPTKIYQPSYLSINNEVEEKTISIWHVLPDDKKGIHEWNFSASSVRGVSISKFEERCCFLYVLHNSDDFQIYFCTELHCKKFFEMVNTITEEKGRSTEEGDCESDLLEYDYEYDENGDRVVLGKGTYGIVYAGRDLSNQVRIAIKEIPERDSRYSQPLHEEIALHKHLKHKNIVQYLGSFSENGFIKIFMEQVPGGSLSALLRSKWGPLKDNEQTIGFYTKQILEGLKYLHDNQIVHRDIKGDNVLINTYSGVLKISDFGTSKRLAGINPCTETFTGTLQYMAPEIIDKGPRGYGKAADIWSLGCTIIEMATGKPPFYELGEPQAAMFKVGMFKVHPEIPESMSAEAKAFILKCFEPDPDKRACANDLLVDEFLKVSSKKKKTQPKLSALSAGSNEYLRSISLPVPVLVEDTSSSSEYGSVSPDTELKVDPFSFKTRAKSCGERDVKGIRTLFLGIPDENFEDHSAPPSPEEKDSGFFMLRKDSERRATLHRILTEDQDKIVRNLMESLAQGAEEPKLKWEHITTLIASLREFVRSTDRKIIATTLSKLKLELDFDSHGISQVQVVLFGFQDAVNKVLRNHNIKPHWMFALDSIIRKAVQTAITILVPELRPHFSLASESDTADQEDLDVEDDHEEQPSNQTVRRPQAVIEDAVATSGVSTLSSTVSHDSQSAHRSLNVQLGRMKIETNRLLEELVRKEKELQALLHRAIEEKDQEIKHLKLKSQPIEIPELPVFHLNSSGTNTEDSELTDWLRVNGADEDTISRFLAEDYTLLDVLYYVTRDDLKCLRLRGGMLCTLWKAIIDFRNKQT

HA-tagged ASK1-WT [2] = target: T1, HA-tagged ASK1-WT; assay: co-immunoprecipitation from BAEC (anti-Flag IP, anti-HA blot)
HA-tagged ASK1-WT [3] = target: T1, HA-tagged ASK1-WT; assay: GST pull-down from BAEC lysate, anti-HA Western blot

B1: Flag-tagged Trx-WT (enzyme, not shown: small tags and cut ends)
chain: MVKQIESKTAFQEALDAAGDKLVVVDFSATWCGPCKMIKPFFHSLSEKYSNVIFLEVDVDDCQDVASECEVKCMPTFQFFKKGQKVGEFSGANKEKLEATINELV
HA-tagged ASK1-WT [1]
  cell survival in ASK1-induced EC death (GFP co-transfection killing assay): 92%
  inhibition of ASK1-induced caspase 3 activity: 50%

B2: Flag-tagged Trx-C32S (enzyme, not shown: small tags and cut ends)
chain: B1 chain with C32S
HA-tagged ASK1-WT [1]
  cell survival in ASK1-induced EC death (GFP co-transfection killing assay): 80%
  inhibition of ASK1-induced caspase 3 activity: 48%

B3: Flag-tagged Trx-C35S (enzyme, not shown: small tags and cut ends)
chain: B1 chain with C35S
HA-tagged ASK1-WT [1]
  cell survival in ASK1-induced EC death (GFP co-transfection killing assay): 105%
  inhibition of ASK1-induced caspase 3 activity: 52%

B4: Flag-tagged Trx-CS (enzyme)
chain: B1 chain with C32S, C35S
notes: Expressed by transfection in BAEC; not shown: Flag tag of the Flag-vector
HA-tagged ASK1-WT [2]
  binding result: no binding

B5: GST-Trx-CS (enzyme, not shown: a dimerising Fc or GST; large carriers; small tags and cut ends)
chain: B1 chain with C32S, C35S
notes: also called double-mutant of C32S and C35S
HA-tagged ASK1-WT [3]
  binding result: no binding
